From publication PMC6709600 (Nature, 2019) come the findings set out here.

The series “crystal structure” concerns the molecule itself. As to the kind of experiment: crystal structure.
The series “cryo-EM structure” concerns the molecule itself. As to the kind of experiment: cryo-EM structure.

B1: mGlu5 ECD (residues 21-569 of wild-type human metabotropic glutamate receptor subtype 5) (domain or fragment)
chain: QSSERRVVAHMPGDIIIGALFSVHHQPTVDKVHERKCGAVREQYGIQRVEAMLHTLERINSDPTLLPNITLGCEIRDSCWHSAVALEQSIEFIRDSLISSEEEEGLVRCVDGSSSSFRSKKPIVGVIGPGSSSVAIQVQNLLQLFNIPQIAYSATSMDLSDKTLFKYFMRVVPSDAQQARAMVDIVKRYNWTYVSAVHTEGNYGESGMEAFKDMSAKEGICIAHSYKIYSNAGEQSFDKLLKKLTSHLPKARVVACFCEGMTVRGLLMAMRRLGLAGEFLLLGSDGWADRYDVTDGYQREAVGGITIKLQSPDVKWFDDYYLKLRPETNHRNPWFQEFWQHRFQCRLEGFPQENSKYNKTCNSSLTLKTHHVQDSKMGFVINAIYSMAYGLHNMQMSLCPGYAGLCDAMKPIDGRKLLESLMKTNFTGVSGDTILFDENGDSPGRYEIMNFKEMGKDYFDYINVGSWDNGELKMDDDEVWSKKSNIIRSVCSEPCEKGQIKVIRKGEVSCCWTCTPCKENEYVFDEYTCKACQLGSWPTDDLTGCDLIP
In the case of B1, the binding result in “crystal structure” is reported as “binds”.

B2: full-length mGlu5, HA-FLAG-human mGlu5 (21-865) with a C-terminal hexahistidine tag (receptor)
chain: QSSERRVVAHMPGDIIIGALFSVHHQPTVDKVHERKCGAVREQYGIQRVEAMLHTLERINSDPTLLPNITLGCEIRDSCWHSAVALEQSIEFIRDSLISSEEEEGLVRCVDGSSSSFRSKKPIVGVIGPGSSSVAIQVQNLLQLFNIPQIAYSATSMDLSDKTLFKYFMRVVPSDAQQARAMVDIVKRYNWTYVSAVHTEGNYGESGMEAFKDMSAKEGICIAHSYKIYSNAGEQSFDKLLKKLTSHLPKARVVACFCEGMTVRGLLMAMRRLGLAGEFLLLGSDGWADRYDVTDGYQREAVGGITIKLQSPDVKWFDDYYLKLRPETNHRNPWFQEFWQHRFQCRLEGFPQENSKYNKTCNSSLTLKTHHVQDSKMGFVINAIYSMAYGLHNMQMSLCPGYAGLCDAMKPIDGRKLLESLMKTNFTGVSGDTILFDENGDSPGRYEIMNFKEMGKDYFDYINVGSWDNGELKMDDDEVWSKKSNIIRSVCSEPCEKGQIKVIRKGEVSCCWTCTPCKENEYVFDEYTCKACQLGSWPTDDLTGCDLIPVQYLRWGDPEPIAAVVFACLGLLATLFVTVVFIIYRDTPVVKSSSRELCYIILAGICLGYLCTFCLIAKPKQIYCYLQRIGIGLSPAMSYSALVTKTNRIARILAGSKKKICTKKPRFMSACAQLVIAFILICIQLGIIVALFIMEPPDIMHDYPSIREVYLICNTTNLGVVTPLGYNGLLILSCTFYAFKTRNVPANFNEAKYIAFTMYTTCIIWLAFVPIYFGSNYKIITMCFSVSLSATVALGCMFVPKVYIILAKPERNVRSAFTTSTVVRMHVGDGKSSSAASRSSSLVNL
Consider B2, for which the binding result in the series “cryo-EM structure” is reported as “binds”.
